Source: PMC3919030 (Journal of molecular biology, 2013)

B2: S. cerevisiae Vps4p(E233Q) (enzyme, UniProt P52917 1-437, looked up)
chain: MSTGDFLTKGIELVQKAIDLDTATQYEEAYTAYYNGLDYLMLALKYEKNPKSKDLIRAKFTEYLNRAEQLKKHLESEEANAAKKSPSAGSGSNGGNKKISQEEGEDNGGEDNKKLRGALSSAILSEKPNVKWEDVAGLEGAKEALKEAVILPVKFPHLFKGNRKPTSGILLYGPPGTGKSYLAKAVATEANSTFFSVSSSDLVSKWMGESEKLVKQLFAMARENKPSIIFIDQVDALTGTRGEGESEASRRIKTELLVQMNGVGNDSQGVLVLGATNIPWQLDSAIRRRFERRIYIPLPDLAARTTMFEINVGDTPCVLTKEDYRTLGAMTEGYSGSDIAVVVKDALMQPIRKIQSATHFKDVSTEDDETRKLTPCSPGDDGAIEMSWTDIEADELKEPDLTIKDFLKAIKSTRPTVNEDDLLKQEQFTRDFGQEGN

Columns and labels:
[1] = target: the molecule itself; assay: crystal structure
[2] = target: the molecule itself; assay: SEC
[3] = target: the molecule itself; assay: SEC; remark: listed apart in the source
[4] = target: the molecule itself; assay: SEC; remark: listed apart in the source
[5] = target: the molecule itself; assay: SEC; remark: listed apart in the source
[6] = target: the molecule itself; assay: AUC
[7] = target: the molecule itself; assay: SEC; remark: listed apart in the source
[8] = target: B2; assay: SEC
[9] = target: T1, S. cerevisiae Vps4p (wild type) (S. cerevisiae, UniProt P52917 1-437); assay: SEC
T1 sequence (looked up): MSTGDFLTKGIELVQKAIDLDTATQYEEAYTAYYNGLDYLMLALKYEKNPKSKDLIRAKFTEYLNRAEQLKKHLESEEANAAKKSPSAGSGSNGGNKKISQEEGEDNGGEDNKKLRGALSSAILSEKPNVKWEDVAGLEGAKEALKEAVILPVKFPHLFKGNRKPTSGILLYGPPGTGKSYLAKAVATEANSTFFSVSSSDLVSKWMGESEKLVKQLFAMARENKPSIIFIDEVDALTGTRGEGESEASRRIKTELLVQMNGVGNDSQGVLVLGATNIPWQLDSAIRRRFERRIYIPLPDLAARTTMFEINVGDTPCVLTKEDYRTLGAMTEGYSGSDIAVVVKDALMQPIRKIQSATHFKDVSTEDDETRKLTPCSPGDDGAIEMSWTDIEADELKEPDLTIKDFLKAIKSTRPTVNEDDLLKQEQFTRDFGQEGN

B1: SsoVps4(85-372, E206Q) (domain or fragment, Sulfolobus solfataricus, UniProt Q97ZJ7 85-372, looked up)
chain: NTSPPEEVVITEKPKVSFKDIVGLDDVKEALREAIIYPTKRPDLFPLGWPRGILLYGPPGCGKTMIAAAVANEIDSIFMQLDAASVMSKWLGEAEKNVANVFKMAREESKKQNKPAIIFIDQLDALLGVYSTEVGGEARVRNQFLKEMDGLLDKSENYKVYVIGATNKPWRLDEAFLRRFQKRIYVPLPDYEQRLSLFKYYTSKIKLDTEVSLEELAKLTEGYTASDIRDIVQAAHIKVVKEMFKNNLGEPRTITLQDFKDILKVRMPSVNPELIKAYEAWTEKFKAL
modifications: selenomethionine-substituted
B1: binds [1].

In the case of B2, the “stoichiometry N” value [2] is reported as 12 and the “stoichiometry N” value [3] is reported as 6.

B3: Sulfolobus solfataricus Vps4 (SsoVps4, wild type) (enzyme, UniProt Q97ZJ7 1-372, looked up)
chain: MSAQVMLEDMARKYAILAVKADKEGKVEDAITYYKKAIEVLSQIIVLYPESVARTAYEQMINEYKKRISYLEKVLPASSDGSGDNTSPPEEVVITEKPKVSFKDIVGLDDVKEALREAIIYPTKRPDLFPLGWPRGILLYGPPGCGKTMIAAAVANEIDSIFMQLDAASVMSKWLGEAEKNVANVFKMAREESKKQNKPAIIFIDELDALLGVYSTEVGGEARVRNQFLKEMDGLLDKSENYKVYVIGATNKPWRLDEAFLRRFQKRIYVPLPDYEQRLSLFKYYTSKIKLDTEVSLEELAKLTEGYTASDIRDIVQAAHIKVVKEMFKNNLGEPRTITLQDFKDILKVRMPSVNPELIKAYEAWTEKFKAL
With B3 the “stoichiometry N” value [4] was 12, the “stoichiometry N” value [5] was roughly 6 and the “stoichiometry N” value [6] was 6.

B4: SsoVps4(E206Q) (enzyme, Sulfolobus solfataricus, UniProt Q97ZJ7 1-372, looked up)
chain: MSAQVMLEDMARKYAILAVKADKEGKVEDAITYYKKAIEVLSQIIVLYPESVARTAYEQMINEYKKRISYLEKVLPASSDGSGDNTSPPEEVVITEKPKVSFKDIVGLDDVKEALREAIIYPTKRPDLFPLGWPRGILLYGPPGCGKTMIAAAVANEIDSIFMQLDAASVMSKWLGEAEKNVANVFKMAREESKKQNKPAIIFIDQLDALLGVYSTEVGGEARVRNQFLKEMDGLLDKSENYKVYVIGATNKPWRLDEAFLRRFQKRIYVPLPDYEQRLSLFKYYTSKIKLDTEVSLEELAKLTEGYTASDIRDIVQAAHIKVVKEMFKNNLGEPRTITLQDFKDILKVRMPSVNPELIKAYEAWTEKFKAL
With B4 the “stoichiometry N” value [4] was 12 and the “stoichiometry N” value [5] was roughly 6.

B5: SsoVps4(F328A) (enzyme, Sulfolobus solfataricus, UniProt Q97ZJ7 1-372, looked up)
chain: MSAQVMLEDMARKYAILAVKADKEGKVEDAITYYKKAIEVLSQIIVLYPESVARTAYEQMINEYKKRISYLEKVLPASSDGSGDNTSPPEEVVITEKPKVSFKDIVGLDDVKEALREAIIYPTKRPDLFPLGWPRGILLYGPPGCGKTMIAAAVANEIDSIFMQLDAASVMSKWLGEAEKNVANVFKMAREESKKQNKPAIIFIDELDALLGVYSTEVGGEARVRNQFLKEMDGLLDKSENYKVYVIGATNKPWRLDEAFLRRFQKRIYVPLPDYEQRLSLFKYYTSKIKLDTEVSLEELAKLTEGYTASDIRDIVQAAHIKVVKEMAKNNLGEPRTITLQDFKDILKVRMPSVNPELIKAYEAWTEKFKAL
With B5 the “stoichiometry N” value [5] was 2.

B6: SsoVps4(R263A) (enzyme, Sulfolobus solfataricus, UniProt Q97ZJ7 1-372, looked up)
chain: MSAQVMLEDMARKYAILAVKADKEGKVEDAITYYKKAIEVLSQIIVLYPESVARTAYEQMINEYKKRISYLEKVLPASSDGSGDNTSPPEEVVITEKPKVSFKDIVGLDDVKEALREAIIYPTKRPDLFPLGWPRGILLYGPPGCGKTMIAAAVANEIDSIFMQLDAASVMSKWLGEAEKNVANVFKMAREESKKQNKPAIIFIDELDALLGVYSTEVGGEARVRNQFLKEMDGLLDKSENYKVYVIGATNKPWRLDEAFLRAFQKRIYVPLPDYEQRLSLFKYYTSKIKLDTEVSLEELAKLTEGYTASDIRDIVQAAHIKVVKEMFKNNLGEPRTITLQDFKDILKVRMPSVNPELIKAYEAWTEKFKAL
B6: binds [7].

B7: SsoVps4(R262A) (enzyme, Sulfolobus solfataricus, UniProt Q97ZJ7 1-372, looked up)
chain: MSAQVMLEDMARKYAILAVKADKEGKVEDAITYYKKAIEVLSQIIVLYPESVARTAYEQMINEYKKRISYLEKVLPASSDGSGDNTSPPEEVVITEKPKVSFKDIVGLDDVKEALREAIIYPTKRPDLFPLGWPRGILLYGPPGCGKTMIAAAVANEIDSIFMQLDAASVMSKWLGEAEKNVANVFKMAREESKKQNKPAIIFIDELDALLGVYSTEVGGEARVRNQFLKEMDGLLDKSENYKVYVIGATNKPWRLDEAFLARFQKRIYVPLPDYEQRLSLFKYYTSKIKLDTEVSLEELAKLTEGYTASDIRDIVQAAHIKVVKEMFKNNLGEPRTITLQDFKDILKVRMPSVNPELIKAYEAWTEKFKAL
B7: binds [7].

B8: S. cerevisiae Vta1p (natural protein, UniProt Q06263 1-330, looked up)
chain: MASNAARVVATAKDFDKVGLGIIGYYLQLYAVELILSEEDRSQEMTALATELLDTIEAFKKEIGGESEAEDSDKSLHVMNTLIHDQEKAKIYMLNFTMSLYNEKLKQLKDGPWDVMLKRSLWCCIDLFSCILHLWKENISETSTNSLQKRIKYCKIYLSKLAKGEIGSSDEKTLDYADFADDSEEIKDEDVDHQTSDLENNNNDKVEGLAPKDQTTSYEPVDEVPEFIDDADSVNEEEQTVDKNEDAITKDEQQVVKKEVDLTRPSAPSEPAAAEHKSYTKDELTKIMDRASKIEQIQKLAKYAISALNYEDLPTAKDELTKALDLLNSI
B8: binds [8]; binds [9].
